{"source": "paper PMC3709774", "about": "“Preparation of Novel Poly(hydroxyethyl methacrylate-coglycidyl methacrylate)-Grafted Core-Shell Magnetic Chitosan Microspheres and Immobilization of Lactase” (International Journal of Molecular Sciences, 2013)", "proteins": {"B1": {"name": "lactase (DSM Maxilact 5000) (Kluyveromyces lactis NRRL Y-1140) (protein)", "chain": "MSCLIPENLRNPKKVHENRLPTRAYYYDQDIFESLNGPWAFALFDAPLDAPDAKNLDWETAKKWSTISVPSHWELQEDWKYGKPIYTNVQYPIPIDIPNPPTVNPTGVYARTFELDSKSIESFEHRLRFEGVDNCYELYVNGQYVGFNKGSRNGAEFDIQKYVSEGENLVVVKVFKWSDSTYIEDQDQWWLSGIYRDVSLLKLPKKAHIEDVRVTTTFVDSQYQDAELSVKVDVQGSSYDHINFTLYEPEDGSKVYDASSLLNEENGNTTFSTKEFISFSTKKNEETAFKINVKAPEHWTAENPTLYKYQLDLIGSDGSVIQSIKHHVGFRQVELKDGNITVNGKDILFRGVNRHDHHPRFGRAVPLDFVVRDLILMKKFNINAVRNSHYPNHPKVYDLFDKLGFWVIDEADLETHGVQEPFNRHTNLEAEYPDTKNKLYDVNAHYLSDNPEYEVAYLDRASQLVLRDVNHPSIIIWSLGNEACYGRNHKAMYKLIKQLDPTRLVHYEGDLNALSADIFSFMYPTFEIMERWRKNHTDENGKFEKPLILCEYGHAMGNGPGSLKEYQELFYKEKFYQGGFIWEWANHGIEFEDVSTADGKLHKAYAYGGDFKEEVHDGVFIMDGLCNSEHNPTPGLVEYKKVIEPVHIKIAHGSVTITNKHDFITTDHLLFIDKDTGKTIDVPSLKPEESVTIPSDTTYVVAVLKDDAGVLKAGHEIAWGQAELPLKVPDFVTETAEKAAKINDGKRYVSVESSGLHFILDKLLGKIESLKVKGKEISSKFEGSSITFWRPPTNNDEPRDFKNWKKYNIDLMKQNIHGVSVEKGSNGSLAVVTVNSRISPVVFYYGFETVQKYTIFANKINLNTSMKLTGEYQPPDFPRVGYEFWLGDSYESFEWLGRGPGESYPDKKESQRFGLYDSKDVEEFVYDYPQENGNHTDTHFLNIKFEGAGKLSIFQKEKPFNFKISDEYGVDEAAHACDVKRYGRHYLRLDHAIHGVGSEACGPAVLDQYRLKAQDFNFEFDLAFE", "notes": "commercial enzyme preparation, free (not immobilised)"}}, "substrate": "O=[N+]([O-])c1ccccc1O[C@@H]1O[C@H](CO)[C@H](O)[C@H](O)[C@H]1O", "assay": "purified protein", "format": "biochemical, Kluyveromyces lactis", "settings": "free enzyme, 37 °C, assay buffer 50 mM potassium phosphate, 1 mmol/L MgCl2, pH 6.5 (general activity assay), substrate range printed as 6.3-31.5 μmol/L, which conflicts with the mmol/L unit of Km", "data": [{"protein": "B1", "values": [{"measurement": "Km", "value": 25.4, "unit": "mM"}, {"measurement": "kcat", "value": 1182.9, "unit": "s⁻¹"}]}]}
